Assay results reported in PMC10721474 (Plant Communications, 2023).
Each block holds one molecule with its values, some of them ahead of it.

How the values were obtained:
[1] = biological target: T1, PIN1 (Arabidopsis thaliana, UniProt Q9C6B8); test: [3H]IAA efflux assay in HEK293F cells; format: cell-based
T1 sequence (Q9C6B8 1-622): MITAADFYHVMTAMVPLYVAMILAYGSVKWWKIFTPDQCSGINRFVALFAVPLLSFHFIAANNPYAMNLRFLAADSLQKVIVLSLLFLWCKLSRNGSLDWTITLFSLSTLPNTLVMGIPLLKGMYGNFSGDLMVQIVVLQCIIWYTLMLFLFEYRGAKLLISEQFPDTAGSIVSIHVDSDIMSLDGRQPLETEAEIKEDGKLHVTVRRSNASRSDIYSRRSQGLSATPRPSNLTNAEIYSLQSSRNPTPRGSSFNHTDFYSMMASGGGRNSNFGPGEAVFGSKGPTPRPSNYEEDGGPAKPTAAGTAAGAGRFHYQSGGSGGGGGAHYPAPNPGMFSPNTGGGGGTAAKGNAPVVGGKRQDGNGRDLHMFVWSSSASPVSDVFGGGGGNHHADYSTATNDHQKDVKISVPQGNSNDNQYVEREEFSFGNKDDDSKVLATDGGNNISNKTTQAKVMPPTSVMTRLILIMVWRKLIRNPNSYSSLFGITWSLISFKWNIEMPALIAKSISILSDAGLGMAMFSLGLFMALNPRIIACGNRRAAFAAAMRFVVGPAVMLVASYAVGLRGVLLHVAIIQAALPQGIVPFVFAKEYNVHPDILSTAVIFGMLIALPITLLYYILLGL
T1 sequence (Q9FG74 1-498 partner): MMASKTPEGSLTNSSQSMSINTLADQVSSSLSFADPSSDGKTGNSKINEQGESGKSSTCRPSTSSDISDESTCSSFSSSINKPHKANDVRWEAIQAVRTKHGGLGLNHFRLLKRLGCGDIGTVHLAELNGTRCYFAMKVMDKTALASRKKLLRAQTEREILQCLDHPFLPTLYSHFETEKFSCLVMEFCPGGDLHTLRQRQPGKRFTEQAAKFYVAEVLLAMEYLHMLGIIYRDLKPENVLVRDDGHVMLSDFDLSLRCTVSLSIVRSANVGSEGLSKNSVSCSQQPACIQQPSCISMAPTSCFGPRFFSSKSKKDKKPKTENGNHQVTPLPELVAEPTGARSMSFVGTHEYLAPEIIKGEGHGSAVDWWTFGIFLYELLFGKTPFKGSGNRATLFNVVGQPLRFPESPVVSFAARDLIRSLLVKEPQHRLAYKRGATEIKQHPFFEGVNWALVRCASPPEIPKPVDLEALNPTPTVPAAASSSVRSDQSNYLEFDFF

[2] = biological target: Arabidopsis thaliana PIN-FORMED 1 (PIN1) auxin transporter (Arabidopsis thaliana, UniProt Q9C6B8); test: cryo-EM structure
[3] = biological target: the molecule itself; test: cryo-EM structure

Molecule: O=C(O)Cc1c[nH]c2ccccc12 [IAA, indole-3-acetic acid]
[3H]IAA efflux assay in HEK293F cells [1]: had much lower retention of [^3H]-IAA than cells transfected with the empty vector

binding result [2]: binds
B1: synthetic nanobody sybody-19 (VHH)
VHH: QVQLVESGGGLVQAGGSLRLSCAASGFPVDITWMEWYRQAPGKEREWVAAIYSSGQSTWYADSVKGRFTISRDNAKNTVYLQMNSLKPEDTAVYYCRVKVGAWYKGQGTQVTVSA

B2: Arabidopsis thaliana PIN-FORMED 1 (PIN1) auxin transporter (natural protein)
chain: MITAADFYHVMTAMVPLYVAMILAYGSVKWWKIFTPDQCSGINRFVALFAVPLLSFHFIAANNPYAMNLRFLAADSLQKVIVLSLLFLWCKLSRNGSLDWTITLFSLSTLPNTLVMGIPLLKGMYGNFSGDLMVQIVVLQCIIWYTLMLFLFEYRGAKLLISEQFPDTAGSIVSIHVDSDIMSLDGRQPLETEAEIKEDGKLHVTVRRSNASRSDIYSRRSQGLSATPRPSNLTNAEIYSLQSSRNPTPRGSSFNHTDFYSMMASGGGRNSNFGPGEAVFGSKGPTPRPSNYEEDGGPAKPTAAGTAAGAGRFHYQSGGSGGGGGAHYPAPNPGMFSPNTGGGGGTAAKGNAPVVGGKRQDGNGRDLHMFVWSSSASPVSDVFGGGGGNHHADYSTATNDHQKDVKISVPQGNSNDNQYVEREEFSFGNKDDDSKVLATDGGNNISNKTTQAKVMPPTSVMTRLILIMVWRKLIRNPNSYSSLFGITWSLISFKWNIEMPALIAKSISILSDAGLGMAMFSLGLFMALNPRIIACGNRRAAFAAAMRFVVGPAVMLVASYAVGLRGVLLHVAIIQAALPQGIVPFVFAKEYNVHPDILSTAVIFGMLIALPITLLYYILLGL
binding result [3]: binds
